Reference: the supplement of paper PMC10065799, “High-throughput profiling of sequence recognition by tyrosine kinases and SH2 domains using bacterial peptide display” (eLife, 2023)

target: EPHB2 (UniProt P29323); assay: phosphorylation enrichment, bacterial display (enrichment ratio); higher = better substrate or ligand; peptides without Tyr show the background
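Also: 11-residue human phosphosite peptides and single-mutation variants displayed on the E. coli surface, counted by deep sequencing, each peptide's frequency after selection divided by its frequency in the unselected input library; frequency after pTyr selection over input frequency; kinase dosed for 20-30% of maximal phosphorylation in three min.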

EPHB2, sequence (P29323 whole entry, looked up): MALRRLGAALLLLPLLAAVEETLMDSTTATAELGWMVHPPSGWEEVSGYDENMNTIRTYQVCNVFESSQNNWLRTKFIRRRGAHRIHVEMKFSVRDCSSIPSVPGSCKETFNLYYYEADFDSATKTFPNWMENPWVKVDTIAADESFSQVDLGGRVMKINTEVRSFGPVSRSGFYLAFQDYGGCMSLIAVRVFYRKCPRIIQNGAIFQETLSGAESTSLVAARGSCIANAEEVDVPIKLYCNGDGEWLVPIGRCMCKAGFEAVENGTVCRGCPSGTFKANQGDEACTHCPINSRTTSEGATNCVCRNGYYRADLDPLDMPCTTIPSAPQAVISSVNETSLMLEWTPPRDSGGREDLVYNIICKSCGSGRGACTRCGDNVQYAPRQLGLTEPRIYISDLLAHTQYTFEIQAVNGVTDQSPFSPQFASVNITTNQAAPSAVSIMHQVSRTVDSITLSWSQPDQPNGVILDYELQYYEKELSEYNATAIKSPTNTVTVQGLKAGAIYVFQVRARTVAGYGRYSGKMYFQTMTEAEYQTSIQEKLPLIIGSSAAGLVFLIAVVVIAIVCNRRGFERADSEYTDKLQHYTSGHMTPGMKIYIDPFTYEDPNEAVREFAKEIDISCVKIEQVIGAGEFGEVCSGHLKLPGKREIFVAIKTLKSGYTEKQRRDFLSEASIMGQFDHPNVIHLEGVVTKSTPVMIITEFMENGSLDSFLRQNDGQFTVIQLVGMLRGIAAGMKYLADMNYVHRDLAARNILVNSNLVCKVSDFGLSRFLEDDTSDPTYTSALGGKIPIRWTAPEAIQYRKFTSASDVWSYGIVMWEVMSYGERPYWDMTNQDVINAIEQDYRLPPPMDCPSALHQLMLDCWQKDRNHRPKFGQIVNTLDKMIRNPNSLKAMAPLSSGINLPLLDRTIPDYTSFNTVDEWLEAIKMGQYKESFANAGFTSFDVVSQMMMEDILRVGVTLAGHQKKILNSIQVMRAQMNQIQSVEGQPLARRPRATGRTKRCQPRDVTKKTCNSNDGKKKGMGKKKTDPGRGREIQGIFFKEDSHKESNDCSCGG

| Sequence | phosphorylation enrichment |
| --- | --- |
| STILLYHIMAW [GPR143_Y157] | 2.88 |
| NKVKFYIPDMN [NCR1_Y84] | 0.476 |
| GIVEDYRPPLF [ACVRL1_Y421_F425L_YF] | 0.418 |
| PVKDPYVMFPQ [PLEKHG2_Y489] | 0.562 |
| GNHISYYQSDG [CACNA1C_Y1757_V1755I] | 0.4 |
| HFVDEYDRTIE [KRAS_Y32_P34R] | 0.805 |
| RCLKDYGEFEV [GINS1_Y156] | 0.626 |
| QPSALYEDRYL [ASS1_Y83_S79P] | 1.16 |
| IHHIDYFKETT [FGFR1_Y653_K656E_YF] | 0.415 |
| RVGVDYEGRGC [PLOD1_Y675_G678R] | 0.464 |
| PEPTGYSAELS [EZR_Y499_A494P] | 0.851 |
| ASGKFYAMKIL [AKT3_Y174_YF] | 0.625 |
| NMSRIYSTAKV [ACE_Y151] | 0.493 |
| LPENPYHSRPR [NDUFA8_Y142] | 0.41 |
| SVVVPYELPEV [TP53_Y220_P222L] | 0.659 |
| TVSQPYSFIEF [SEC22B_Y110_R108Q] | 0.54 |
| HTVVSYAEVRA [CLOCK_Y378] | 0.809 |

| Sequence | phosphorylation enrichment |
| --- | --- |
| CEAIEYLESKQ [BTK_Y511_M509I] | 0.553 |
| FSQETYYRVSN [ABCD1_Y180_Q178E] | 2.73 |
| LKDEDYLKDIV [HAUS3_Y582] | 0.843 |
| PESILYRKFTT [NTRK1_Y701] | 0.52 |
| EAIAKYDLKAT [GRB2_Y7_F9L] | 0.464 |
| ADEQIYWQIAA [CSKtide_2014] | 1.37 |
| IRTIDYRFTVS [IDS_Y497_W502S_YF] | 0.547 |
| SIDLGYHKDLQ [NF1_Y1169_G1166D] | 0.478 |
| RREQDYTNLPS [CSF1R_Y923_R921Q] | 0.468 |
| CSKRFYQLTKL [AR_Y858_R855K] | 0.44 |
| MSRDVYSIDFF [NTRK2_Y702_T704I_YF] | 1.17 |
| EHEALYLEADL [CENPF_Y1920] | 0.84 |
| YQQLFYLLQIN [IQGAP2_Y890_T894I] | 0.829 |
| EQYELHCEMGS [CBL_Y371_Y371H] | 0.63 |
| NGVSFYINLCQ [IGF2R_Y2025_YF] | 0.699 |
| ANNPLYKEVTS [ITGB3_Y773_A776V] | 0.409 |

tested on: c-Src; assay: as above

| Sequence | phosphorylation enrichment |
| --- | --- |
| STILLYHIMAW [GPR143_Y157] | 1.01 |
| NKVKFYIPDMN [NCR1_Y84] | 0.567 |
| GIVEDYRPPLF [ACVRL1_Y421_F425L_YF] | 0.373 |
| PVKDPYVMFPQ [PLEKHG2_Y489] | 2.43 |
| GNHISYYQSDG [CACNA1C_Y1757_V1755I] | 0.496 |
| HFVDEYDRTIE [KRAS_Y32_P34R] | 0.989 |
| RCLKDYGEFEV [GINS1_Y156] | 1.19 |
| QPSALYEDRYL [ASS1_Y83_S79P] | 0.942 |
| IHHIDYFKETT [FGFR1_Y653_K656E_YF] | 0.489 |
| RVGVDYEGRGC [PLOD1_Y675_G678R] | 0.424 |
| PEPTGYSAELS [EZR_Y499_A494P] | 0.461 |
| ASGKFYAMKIL [AKT3_Y174_YF] | 0.426 |
| NMSRIYSTAKV [ACE_Y151] | 0.477 |
| LPENPYHSRPR [NDUFA8_Y142] | 1.8 |
| SVVVPYELPEV [TP53_Y220_P222L] | 0.545 |
| TVSQPYSFIEF [SEC22B_Y110_R108Q] | 5.66 |
| HTVVSYAEVRA [CLOCK_Y378] | 0.742 |

| Sequence | phosphorylation enrichment |
| --- | --- |
| CEAIEYLESKQ [BTK_Y511_M509I] | 0.549 |
| FSQETYYRVSN [ABCD1_Y180_Q178E] | 4.41 |
| LKDEDYLKDIV [HAUS3_Y582] | 1.02 |
| PESILYRKFTT [NTRK1_Y701] | 0.632 |
| EAIAKYDLKAT [GRB2_Y7_F9L] | 0.438 |
| ADEQIYWQIAA [CSKtide_2014] | 4.66 |
| IRTIDYRFTVS [IDS_Y497_W502S_YF] | 0.458 |
| SIDLGYHKDLQ [NF1_Y1169_G1166D] | 0.552 |
| RREQDYTNLPS [CSF1R_Y923_R921Q] | 0.446 |
| CSKRFYQLTKL [AR_Y858_R855K] | 0.449 |
| MSRDVYSIDFF [NTRK2_Y702_T704I_YF] | 6.79 |
| EHEALYLEADL [CENPF_Y1920] | 0.986 |
| YQQLFYLLQIN [IQGAP2_Y890_T894I] | 1 |
| EQYELHCEMGS [CBL_Y371_Y371H] | 0.61 |
| NGVSFYINLCQ [IGF2R_Y2025_YF] | 0.472 |
| ANNPLYKEVTS [ITGB3_Y773_A776V] | 0.467 |

target: Fes (UniProt P07332); assay: as above
Sequence (P07332 whole entry, looked up): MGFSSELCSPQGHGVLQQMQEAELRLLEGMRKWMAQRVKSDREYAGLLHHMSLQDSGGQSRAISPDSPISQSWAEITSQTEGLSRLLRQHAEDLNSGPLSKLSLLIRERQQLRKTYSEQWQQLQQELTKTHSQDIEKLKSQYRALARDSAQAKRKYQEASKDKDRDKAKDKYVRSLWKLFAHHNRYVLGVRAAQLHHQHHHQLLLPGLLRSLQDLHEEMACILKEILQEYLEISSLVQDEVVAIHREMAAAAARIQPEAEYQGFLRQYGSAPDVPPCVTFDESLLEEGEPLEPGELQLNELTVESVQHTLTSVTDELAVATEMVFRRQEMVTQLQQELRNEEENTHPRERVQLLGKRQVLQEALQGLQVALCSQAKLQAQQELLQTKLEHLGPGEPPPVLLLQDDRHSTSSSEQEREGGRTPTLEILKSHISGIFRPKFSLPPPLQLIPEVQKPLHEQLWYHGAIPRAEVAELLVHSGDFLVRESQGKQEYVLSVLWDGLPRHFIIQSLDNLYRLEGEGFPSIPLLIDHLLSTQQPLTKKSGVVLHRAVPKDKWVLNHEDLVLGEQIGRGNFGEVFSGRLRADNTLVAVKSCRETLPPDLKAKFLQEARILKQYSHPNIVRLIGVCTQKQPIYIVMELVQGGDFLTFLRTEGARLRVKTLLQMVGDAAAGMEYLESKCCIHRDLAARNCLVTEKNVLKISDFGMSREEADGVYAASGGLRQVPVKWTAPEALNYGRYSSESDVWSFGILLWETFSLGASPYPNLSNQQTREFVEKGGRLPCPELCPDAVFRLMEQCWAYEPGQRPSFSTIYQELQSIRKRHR

| Sequence | phosphorylation enrichment |
| --- | --- |
| STILLYHIMAW [GPR143_Y157] | 1.64 |
| NKVKFYIPDMN [NCR1_Y84] | 0.865 |
| GIVEDYRPPLF [ACVRL1_Y421_F425L_YF] | 0.904 |
| PVKDPYVMFPQ [PLEKHG2_Y489] | 1.03 |
| GNHISYYQSDG [CACNA1C_Y1757_V1755I] | 0.569 |
| HFVDEYDRTIE [KRAS_Y32_P34R] | 1.66 |
| RCLKDYGEFEV [GINS1_Y156] | 1.13 |
| QPSALYEDRYL [ASS1_Y83_S79P] | 1.06 |
| IHHIDYFKETT [FGFR1_Y653_K656E_YF] | 0.778 |
| RVGVDYEGRGC [PLOD1_Y675_G678R] | 1.02 |
| PEPTGYSAELS [EZR_Y499_A494P] | 0.943 |
| ASGKFYAMKIL [AKT3_Y174_YF] | 1.07 |
| NMSRIYSTAKV [ACE_Y151] | 0.563 |
| LPENPYHSRPR [NDUFA8_Y142] | 0.632 |
| SVVVPYELPEV [TP53_Y220_P222L] | 1.29 |
| TVSQPYSFIEF [SEC22B_Y110_R108Q] | 3.48 |
| HTVVSYAEVRA [CLOCK_Y378] | 1.23 |

| Sequence | phosphorylation enrichment |
| --- | --- |
| CEAIEYLESKQ [BTK_Y511_M509I] | 1.39 |
| FSQETYYRVSN [ABCD1_Y180_Q178E] | 0.812 |
| LKDEDYLKDIV [HAUS3_Y582] | 1.85 |
| PESILYRKFTT [NTRK1_Y701] | 0.9 |
| EAIAKYDLKAT [GRB2_Y7_F9L] | 0.713 |
| ADEQIYWQIAA [CSKtide_2014] | 1.56 |
| IRTIDYRFTVS [IDS_Y497_W502S_YF] | 1.05 |
| SIDLGYHKDLQ [NF1_Y1169_G1166D] | 0.777 |
| RREQDYTNLPS [CSF1R_Y923_R921Q] | 1.75 |
| CSKRFYQLTKL [AR_Y858_R855K] | 0.888 |
| MSRDVYSIDFF [NTRK2_Y702_T704I_YF] | 1.05 |
| EHEALYLEADL [CENPF_Y1920] | 1.34 |
| YQQLFYLLQIN [IQGAP2_Y890_T894I] | 1.81 |
| EQYELHCEMGS [CBL_Y371_Y371H] | 1.18 |
| NGVSFYINLCQ [IGF2R_Y2025_YF] | 2 |
| ANNPLYKEVTS [ITGB3_Y773_A776V] | 0.797 |

target: EPHB1 (UniProt P54762); assay: as above
Sequence (P54762 whole entry, looked up): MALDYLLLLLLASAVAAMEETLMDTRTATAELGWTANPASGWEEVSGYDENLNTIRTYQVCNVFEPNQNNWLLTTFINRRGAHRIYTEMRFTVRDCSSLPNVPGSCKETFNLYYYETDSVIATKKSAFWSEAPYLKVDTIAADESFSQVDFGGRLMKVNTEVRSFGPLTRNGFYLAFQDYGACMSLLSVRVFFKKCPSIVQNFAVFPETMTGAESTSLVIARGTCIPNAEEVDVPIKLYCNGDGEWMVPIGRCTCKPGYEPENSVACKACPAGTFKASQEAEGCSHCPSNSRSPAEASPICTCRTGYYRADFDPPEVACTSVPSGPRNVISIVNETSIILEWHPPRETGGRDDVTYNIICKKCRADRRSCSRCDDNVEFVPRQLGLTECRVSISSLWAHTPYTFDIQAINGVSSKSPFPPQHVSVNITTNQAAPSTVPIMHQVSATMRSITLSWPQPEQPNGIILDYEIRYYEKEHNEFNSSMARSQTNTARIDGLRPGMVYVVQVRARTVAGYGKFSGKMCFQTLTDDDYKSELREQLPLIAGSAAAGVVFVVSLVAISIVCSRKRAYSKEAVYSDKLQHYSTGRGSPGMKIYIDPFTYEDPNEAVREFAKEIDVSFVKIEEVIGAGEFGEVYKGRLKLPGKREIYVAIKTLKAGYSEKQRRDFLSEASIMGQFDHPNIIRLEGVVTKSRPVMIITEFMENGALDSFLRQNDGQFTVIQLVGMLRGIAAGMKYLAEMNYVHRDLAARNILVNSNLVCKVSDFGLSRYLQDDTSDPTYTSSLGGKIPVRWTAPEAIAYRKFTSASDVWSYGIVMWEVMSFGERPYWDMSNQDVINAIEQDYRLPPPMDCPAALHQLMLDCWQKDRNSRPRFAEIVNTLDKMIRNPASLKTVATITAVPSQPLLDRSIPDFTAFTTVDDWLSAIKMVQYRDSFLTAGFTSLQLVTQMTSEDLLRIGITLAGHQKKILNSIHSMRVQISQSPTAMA

| Sequence | phosphorylation enrichment |
| --- | --- |
| STILLYHIMAW [GPR143_Y157] | 4.83 |
| NKVKFYIPDMN [NCR1_Y84] | 0.496 |
| GIVEDYRPPLF [ACVRL1_Y421_F425L_YF] | 0.442 |
| PVKDPYVMFPQ [PLEKHG2_Y489] | 0.603 |
| GNHISYYQSDG [CACNA1C_Y1757_V1755I] | 0.668 |
| HFVDEYDRTIE [KRAS_Y32_P34R] | 0.875 |
| RCLKDYGEFEV [GINS1_Y156] | 0.5 |
| QPSALYEDRYL [ASS1_Y83_S79P] | 1.67 |
| IHHIDYFKETT [FGFR1_Y653_K656E_YF] | 0.456 |
| RVGVDYEGRGC [PLOD1_Y675_G678R] | 0.69 |
| PEPTGYSAELS [EZR_Y499_A494P] | 0.573 |
| ASGKFYAMKIL [AKT3_Y174_YF] | 0.519 |
| NMSRIYSTAKV [ACE_Y151] | 0.342 |
| LPENPYHSRPR [NDUFA8_Y142] | 0.3 |
| SVVVPYELPEV [TP53_Y220_P222L] | 0.643 |
| TVSQPYSFIEF [SEC22B_Y110_R108Q] | 0.878 |
| HTVVSYAEVRA [CLOCK_Y378] | 0.627 |

| Sequence | phosphorylation enrichment |
| --- | --- |
| CEAIEYLESKQ [BTK_Y511_M509I] | 0.631 |
| FSQETYYRVSN [ABCD1_Y180_Q178E] | 4.43 |
| LKDEDYLKDIV [HAUS3_Y582] | 0.861 |
| PESILYRKFTT [NTRK1_Y701] | 0.668 |
| EAIAKYDLKAT [GRB2_Y7_F9L] | 0.489 |
| ADEQIYWQIAA [CSKtide_2014] | 2.64 |
| IRTIDYRFTVS [IDS_Y497_W502S_YF] | 0.496 |
| SIDLGYHKDLQ [NF1_Y1169_G1166D] | 0.46 |
| RREQDYTNLPS [CSF1R_Y923_R921Q] | 0.573 |
| CSKRFYQLTKL [AR_Y858_R855K] | 0.545 |
| MSRDVYSIDFF [NTRK2_Y702_T704I_YF] | 1.23 |
| EHEALYLEADL [CENPF_Y1920] | 0.57 |
| YQQLFYLLQIN [IQGAP2_Y890_T894I] | 1.21 |
| EQYELHCEMGS [CBL_Y371_Y371H] | 0.682 |
| NGVSFYINLCQ [IGF2R_Y2025_YF] | 1.11 |
| ANNPLYKEVTS [ITGB3_Y773_A776V] | 0.506 |
